Values of other authors, collected in PMC5671728.
Where “and” joins values, the source holds several entries; their conditions need not be identical. Equal entries are not always repeated.

Columns and labels:
[1] = molecular target: Insulin receptor isoform A (Homo sapiens) (UniProt P06213)
[2] = molecular target: Insulin receptor isoform B (Homo sapiens) (UniProt P06213)

Sequence of Insulin (P01308 90-110): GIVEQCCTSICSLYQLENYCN

Kd [1]: 0.91 nM and 2.1 nM | Kd [2]: 1.8 nM and 1.56 nM
Substance: Insulin (from UniProt P01308)
